One series concerns His-GST-MBD1 (1-75). As to the kind of experiment: pull-down. The settings on record: 2 pg fragment mixed with 10 ug genomic DNA, 4 C overnight, q-PCR read-out, 5mC, PCR product, methylation procedure not detailed, EMSA/competition: 25 mM HEPES-NaOH pH 7.4, 0.1 M NaCl, 0.1 mM TCEP, 250 ng poly(dI-dC)(dI-dC), 30 min, 7.5% native PAGE in 1x TBE. In general terms: A gel shift assay detects complexes by their altered migration in electrophoresis.

The target in a further series is T1, Uhrf1 (Np95) SRA domain (mouse, UniProt Q8VDF2 405-613).
T1 sequence: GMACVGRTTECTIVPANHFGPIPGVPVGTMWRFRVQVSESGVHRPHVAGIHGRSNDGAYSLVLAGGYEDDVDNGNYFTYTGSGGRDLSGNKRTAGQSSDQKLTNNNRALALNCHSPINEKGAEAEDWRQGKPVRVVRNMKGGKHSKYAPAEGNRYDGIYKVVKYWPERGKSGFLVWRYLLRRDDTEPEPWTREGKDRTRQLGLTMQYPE
As to the kind of experiment: EMSA; 0-3 uM SRA, 1 uM DNA, 250 ng poly(dI-dC); EMSA/competition: 25 mM HEPES-NaOH pH 7.4, 0.1 M NaCl, 0.1 mM TCEP, 250 ng poly(dI-dC)(dI-dC), 4 C, 30 min; 7.5% native PAGE in 1x TBE. The following applies: protein: recombinant; blunt.

As to methylated histone H3 DNA fragment, the binding signal in the series with His-GST-MBD1 (1-75) came to 90 % recovered.

B1: CG/5mCG (hemi-methylated 12-bp) (dsDNA)
DNA 1: CTACCGGATTGC
DNA 2: GCAATCCGGTAG
modifications: 5mC at position 7 of strand 2 (GCAATCXGGTAG, X = 5mC)
For the molecule B1, the binding result with Uhrf1 (Np95) SRA domain was “binds”.

For the origin of these results see article PMC3858372, “Cell Cycle-Dependent Turnover of 5-Hydroxymethyl Cytosine in Mouse Embryonic Stem Cells”.
